Patent publication US7485710B2, “Nucleic acids coding for adhesion factor of group B streptococcus, adhesion factors of group B streptococcus and further uses thereof” (priority 2002, dated 2009)

What was measured:
human fibrinogen [1] = biological target: T1, human fibrinogen (Homo sapiens, UniProt P02671+P02675+P02679); experiment: Spot membrane analysis of fibrinogen binding by synthetic peptides; conditions: peptides derived from FbsA repeat GNVLERRQRDAENRSQ
T1 construct: purchased Sigma-Aldrich
Method: Fibrinogen binding was tested with peptides carrying the FbsA repeat motif ‘GNVLERRQRDAENRSQ’ (SEQ ID 113) and with peptides containing the scrambled sequence ‘GLSQNRDVRENQRARE’. (SEQ ID 205) Synthetic peptides, which differed from the repeat motif in that single amino acids had been replaced by alanine, were probed for fibrinogen binding. Beside the spot membrane, the sequence of each synthetic peptide is listed. Bold and underlined letters indicate amino acid substitutions within the repeat motif.
Synthetic peptides were tested for fibrinogen binding, in which each of the amino acids of the fibrinogen-binding repeat was replaced by each of the 20 amino acids. The vertical letters, printed in bold, represent the FbsA-derived fibrinogen binding sequence ‘GNVLERRQRDAENRSQ’ (SEQ ID NO: 113). The horizontal letters represent those amino acids that were introduced in the synthetic peptides instead of the original amino acid in the respective position.
In Western blot experiments proteins were separated by SDS-PAGE and electroblotted onto nitrocellulose. […] For spot membrane experiments peptides of 16 amino acids were synthesized and equal amounts of the peptides were directly spotted onto cellulose paper as described previously (Frank and Overwin, 1996). Blocking was performed in membrane blocking solution (MBS) that consisted of 20 ml casein based blocking buffer (Genosys Biotechnologies, Cambridge, England), 80 ml Tris-buffered saline (TBS), 0.05% tween 20, and 5 g sucrose. Probing for fibrinogen-binding was performed as described below.
Membranes that had been blocked overnight were incubated for 1 h with 2 μg/ml of human fibrinogen. For Western and colony blot experiments, fibrinogen and antibodies were diluted in PBS while for spot membrane analysis they were diluted in MBS. Following three washes with PBS, the membrane was incubated with anti-fibrinogen antibodies (1:1000 in PBS or MBS) for 1 h. This incubation was followed by three washes with PBS, containing 0.05% tween 20 (PBST) and two washes with PBS. Subsequently, the membrane was incubated for 1 h with peroxidase-labelled anti-rabbit IgG (1:1000 in PBS or MBS). After three washes with PBST and two washes with PBS, bound fibrinogen was detected by chemiluminescence using the ECL-kit (Amersham/Pharmacia). In control experiments, no cross-reactivity of the used antibodies with the immobilized proteins and peptides was detected.

GBS 6313 = experiment: Competitive inhibition of 125I-labelled fibrinogen binding to GBS; design: species or system Streptococcus agalactiae; conditions: for inhibition of fibrinogen binding to GBS: 160 μM synthetic peptide, radiolabelled fibrinogen
Method: FbsA-9 differs from FbsA-19 in that it contains only 9 repeats in its repeat domain. The binding assay was performed with ^125I-labelled fibrinogen in the presence of different concentrations of each fusion protein. Each experiment was performed at least in triplicate.
Each experiment was performed at least in triplicate.
Purified human fibrinogen was radiolabelled with ^125I, using the chloramin T method (Hunter and Greenwood, 1962). Binding of labelled fibrinogen to GBS was performed essentially as described by Chhatwal et al. (Chhatwal, Muller, and Blobel, 1983). Briefly, overnight cultures of GBS were pelleted by centrifugation, washed twice with phosphate-buffered saline supplemented with 0.02% Tween 20 (PBST) and adjusted photometrically to a transmission of 10% at 600 nm. A total of 0.2 ml of the bacterial suspension was added to 20 μl of ^125I-labelled fibrinogen containing 23 ng of fibrinogen. After incubation for 1 h at room temperature, the streptococci were sedimented by centrifugation and washed with 1 ml of PBST. The radioactivity of the pellet was finally measured in a gamma counter (Packard Instruments). The amount of bacterial-bound fibrinogen was calculated as the percentage of total radiolabelled fibrinogen added to the bacteria. In inhibition experiments, the binding of 23 ng of radiolabelled fibrinogen to 0.2 ml of GBS (T=10%) was determined in the presence of various amounts of FbsA fusion proteins, Bsp fusion protein or synthetic peptides. Each experiment was repeated at least three times in triplicate.

A549 cells = experiment: Epithelial cell adherence and internalization assay of GBS 6313 in presence of proteins; assay type: cell-based, human; conditions: fibrinogen 0.1 μg/ml to 1.0 μg/ml; fibronectin 10 μg/ml; data not shown
Method: The adherence of GBS 6313 to A549 cells (A) and its internalization into these cells (B) was arbitrarily set to 100% and the results obtained in the presence of the different fusion proteins was related to these values. Each experiment was performed at least three times in triplicate.
Adherence of GBS to epithelial cells and internalization into epithelial cells was assayed essentially as described previously (Caparon et al., 1991; Rubens et al. 1992). Briefly, A549 cells were transferred to 24-well tissue culture plates at approximately 4×10^5 cells per well and cultivated overnight in RPMI (Gibco BRL) tissue culture medium, supplemented with 10% of fetal calf serum. After replacement of the medium with 1 ml of fresh medium, the cells were infected with 5×10^6 streptococci per well and incubated at 37° C. for 2 h. The non-adherent bacteria were removed by washing three times with PBS. In adherence assays, the epithelial cells were subsequently detached from the well by the addition of trypsin/EDTA and lysed by adding 300 μl of distilled water. Adherent bacteria were quantitated by plating serial dilutions of the lysate onto THY agar plates. For internalization assays the epithelial cells were incubated after 2 h of infection for another 2 h in tissue culture medium supplemented with penicilling G (10 U) and streptomycin (0.01 mg) to kill extracellular bacteria. After three washes with PBS, the epithelial cells were detached by the addition of trypsin/EDTA and lysed in 300 μl of distilled water. The amount of intracellular bacteria was quantified by plating serial dilutions of the lysate onto THY agar plates. Each experiment was repeated at least three times in triplicate. […]
Adherence of S. agalactiae to A549 and HEL299 cells and internalization into these cells was assayed essentially as described in Example 1 for A549 cells. In some experiments, A549 cells were preincubated with different amounts of FbsA protein or FbsA-derived peptides in RPMI medium for 30 min with three subsequent washes with PBS.

human fibrinogen [2] = biological target: T1, human fibrinogen; experiment: Western blot of fusion proteins for fibrinogen binding; conditions: His-tagged fusion proteins separated by SDS-PAGE, blotted, probed with human fibrinogen
Text: The fibrinogen binding activity of the three proteins encoded by different constructs are indicated below the schematic FbsA drawing.
The fusion proteins were size-separated by SDS-PAGE, transferred onto a nitrocellulose membrane and tested for fibrinogen binding by Western blotting. Bound fibrinogen was detected with rabbit anti-fibrinogen antibodies, followed by peroxidase-labelled goat anti-rabbit antibodies, and visualized by chemiluminescence. PabC and Gbs0851: full-length fusion proteins; PabC-N: N-terminal 388 amino acids of PabC; PabC-C: C-terminal 222 amino acids of PabC. (C) Identification of the FbsA and PabC-binding sites within human fibrinogen by Western blot analysis. […] Bound fusion proteins were detected with mouse anti-HisTag antibodies, followed by peroxidase-conjugated goat anti-mouse IgG fab fragments and visualized by chemiluminescence. […]
Membranes that had been blocked overnight were incubated for 1 h with 2 μg/ml of human fibrinogen. […] After three washes with PBST and two washes with PBS, bound fibrinogen was detected by chemiluminescence using the ECL-kit (Amersham/Pharmacia). In control experiments, no cross-reactivity of the used antibodies with the immobilized proteins and peptides was detected.

T1 sequence (P02675 31-491): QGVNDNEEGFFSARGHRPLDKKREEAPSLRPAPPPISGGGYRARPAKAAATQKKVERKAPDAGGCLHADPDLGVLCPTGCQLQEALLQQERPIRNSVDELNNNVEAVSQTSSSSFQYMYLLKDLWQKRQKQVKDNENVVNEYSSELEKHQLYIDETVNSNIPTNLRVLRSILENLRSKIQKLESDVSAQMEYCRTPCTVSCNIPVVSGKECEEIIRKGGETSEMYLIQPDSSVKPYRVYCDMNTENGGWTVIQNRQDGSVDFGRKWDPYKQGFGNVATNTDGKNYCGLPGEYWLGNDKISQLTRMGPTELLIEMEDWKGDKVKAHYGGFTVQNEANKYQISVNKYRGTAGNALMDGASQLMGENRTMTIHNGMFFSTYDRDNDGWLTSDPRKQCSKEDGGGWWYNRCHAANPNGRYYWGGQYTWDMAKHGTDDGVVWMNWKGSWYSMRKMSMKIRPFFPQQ
T1 sequence (P02679 27-433): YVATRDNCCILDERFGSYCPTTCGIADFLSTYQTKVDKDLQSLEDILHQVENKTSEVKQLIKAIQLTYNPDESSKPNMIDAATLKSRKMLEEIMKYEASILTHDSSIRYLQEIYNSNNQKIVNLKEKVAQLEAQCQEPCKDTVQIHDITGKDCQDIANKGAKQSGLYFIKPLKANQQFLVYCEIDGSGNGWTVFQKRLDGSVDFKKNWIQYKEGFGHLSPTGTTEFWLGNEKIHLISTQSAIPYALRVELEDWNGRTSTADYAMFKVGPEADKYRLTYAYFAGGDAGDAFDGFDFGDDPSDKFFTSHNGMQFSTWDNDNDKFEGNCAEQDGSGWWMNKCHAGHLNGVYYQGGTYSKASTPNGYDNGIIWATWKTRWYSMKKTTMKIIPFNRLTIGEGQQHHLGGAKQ
T1 sequence (P02671 20-629): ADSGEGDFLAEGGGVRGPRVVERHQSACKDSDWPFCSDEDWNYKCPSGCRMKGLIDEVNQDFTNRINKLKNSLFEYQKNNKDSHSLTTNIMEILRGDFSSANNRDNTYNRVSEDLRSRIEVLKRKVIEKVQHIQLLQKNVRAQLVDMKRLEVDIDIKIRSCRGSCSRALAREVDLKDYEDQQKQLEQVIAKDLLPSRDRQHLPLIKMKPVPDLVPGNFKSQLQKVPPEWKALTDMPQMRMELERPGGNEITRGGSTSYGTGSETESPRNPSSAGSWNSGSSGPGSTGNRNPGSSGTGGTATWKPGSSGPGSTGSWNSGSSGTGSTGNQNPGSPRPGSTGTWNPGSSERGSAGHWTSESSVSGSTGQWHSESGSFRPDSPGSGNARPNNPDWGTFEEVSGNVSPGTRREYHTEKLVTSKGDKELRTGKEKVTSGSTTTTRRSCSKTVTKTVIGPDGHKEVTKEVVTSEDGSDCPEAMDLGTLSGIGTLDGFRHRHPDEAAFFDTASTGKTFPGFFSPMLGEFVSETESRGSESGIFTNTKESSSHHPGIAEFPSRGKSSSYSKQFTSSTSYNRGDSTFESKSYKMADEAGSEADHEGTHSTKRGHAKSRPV

GNVLERRQRDAENRSQ (listed as Streptococcus agalactiae) [pep_FbsA]
fibrinogen binding of synthetic 16-mer peptides on spot membrane (human fibrinogen [1]): strong interaction | inhibition of fibrinogen binding to GBS (GBS 6313): 80%

R^14K: FbsA repeat peptide with R14K substitution (GNVLERRQRDAENKSQ; listed as Streptococcus agalactiae)
fibrinogen binding of synthetic 16-mer peptides on spot membrane (human fibrinogen [1]): retained fibrinogen binding

GLSQNRDVRENQRARE (listed as Streptococcus agalactiae) [randomised peptide, reference compound]
fibrinogen binding of synthetic 16-mer peptides on spot membrane (human fibrinogen [1]): no binding of fibrinogen

GNVLEARQRDAENRSQ [pep_R6A, synthetic FbsA repeat unit peptide carrying an R6A substitution]
fibrinogen binding of synthetic 16-mer peptides on spot membrane (human fibrinogen [1]): significantly reduced binding to fibrinogen | fibrinogen binding of synthetic 16-mer peptides on spot membrane (human fibrinogen [1]; listed as R6A): retained little binding activity | inhibition of fibrinogen binding to GBS (GBS 6313): 20%

fibronectin [reference compound]
bacterial adherence to A549 cells after pre-incubation of S. agalactiae 6313 with protein (A549 cells): did not exert an inhibitory effect | bacterial invasion of A549 cells after pre-incubation of S. agalactiae 6313 with protein (A549 cells): did not exert an inhibitory effect

B1: FbsA-N: fusion protein with the 19 N-terminal repeats of FbsA-19, truncated at its C-terminus (protein)
chain: MDSVGNQSQGNVLERRQRDAENRSQGNVLERRQRDVENKSQGNVLERRQRDAENKSQGNVLERRQRDAENRSQGNVLERRQRDAENRSQGNVLERRQRDAENRSQGNVLERRQRDAENRSQGNVLERRQRDAENRSQGNVLERRQRDVENKSQGNVLERRQRDAENKSQGNVLERRQRDAENRSQGNVLERRQRDAENRSQGNVLERRQRDAENRSQGNVLERRQRDAENRSQGNVLERRQRDAENRSQGNVLERRQRDAENRSQGNVLERRQRDAENRSQGNVLERRQRDAENRSQGNVLERRQRDAENKSQVGQLIG
modifications: left off: small tags and cut ends
notes: fusion protein with the 19 N-terminal repeats of FbsA-19, truncated at its C-terminus
fibrinogen binding in Western blot (human fibrinogen [2]): fibrinogen binding was observed

B2: FbsA-9: derivative of FbsA-19 fusion protein with only 9 repeats in its repeat domain (protein)
chain: MDSVGNQSQGNVLERRQRDAENRSQGNVLERRQRDVENKSQGNVLERRQRDAENKSQGNVLERRQRDAENRSQGNVLERRQRDAENRSQGNVLERRQRDAENRSQGNVLERRQRDAENRSQGNVLERRQRDAENRSQGNVLERRQRDAENKSQVGQLIGKNPLLSKSIISRENNHSSQGDSNKQSFSKKVSQVTNVANRPMLTNNSRTISVINKLPKTGDDQNV
modifications: left off: small tags and cut ends
notes: derivative of FbsA-19 fusion protein with only 9 repeats in its repeat domain
inhibition of binding of 125I-labelled fibrinogen to GBS 6313 (GBS 6313; increasing concentrations of purified fusion protein): significantly higher concentration of FbsA-9 had to be used to obtain a comparable inhibition
